To fix the notation:
T1: phosphorylase kinase α subunit (rabbit (endogenous in skeletal muscle), UniProt P18688 1-1237)
T1 construct: phosphorylase kinase α subunit, regulatory, skeletal muscle; printed as 138 kDa, 1237 amino acids; In the aged preparation used for Superdex 200 gel filtration the α subunit may have been partly proteolysed; source: purified from rabbit fast-twitch skeletal muscle as part of the PhK holoenzyme
T1 sequence (looked up): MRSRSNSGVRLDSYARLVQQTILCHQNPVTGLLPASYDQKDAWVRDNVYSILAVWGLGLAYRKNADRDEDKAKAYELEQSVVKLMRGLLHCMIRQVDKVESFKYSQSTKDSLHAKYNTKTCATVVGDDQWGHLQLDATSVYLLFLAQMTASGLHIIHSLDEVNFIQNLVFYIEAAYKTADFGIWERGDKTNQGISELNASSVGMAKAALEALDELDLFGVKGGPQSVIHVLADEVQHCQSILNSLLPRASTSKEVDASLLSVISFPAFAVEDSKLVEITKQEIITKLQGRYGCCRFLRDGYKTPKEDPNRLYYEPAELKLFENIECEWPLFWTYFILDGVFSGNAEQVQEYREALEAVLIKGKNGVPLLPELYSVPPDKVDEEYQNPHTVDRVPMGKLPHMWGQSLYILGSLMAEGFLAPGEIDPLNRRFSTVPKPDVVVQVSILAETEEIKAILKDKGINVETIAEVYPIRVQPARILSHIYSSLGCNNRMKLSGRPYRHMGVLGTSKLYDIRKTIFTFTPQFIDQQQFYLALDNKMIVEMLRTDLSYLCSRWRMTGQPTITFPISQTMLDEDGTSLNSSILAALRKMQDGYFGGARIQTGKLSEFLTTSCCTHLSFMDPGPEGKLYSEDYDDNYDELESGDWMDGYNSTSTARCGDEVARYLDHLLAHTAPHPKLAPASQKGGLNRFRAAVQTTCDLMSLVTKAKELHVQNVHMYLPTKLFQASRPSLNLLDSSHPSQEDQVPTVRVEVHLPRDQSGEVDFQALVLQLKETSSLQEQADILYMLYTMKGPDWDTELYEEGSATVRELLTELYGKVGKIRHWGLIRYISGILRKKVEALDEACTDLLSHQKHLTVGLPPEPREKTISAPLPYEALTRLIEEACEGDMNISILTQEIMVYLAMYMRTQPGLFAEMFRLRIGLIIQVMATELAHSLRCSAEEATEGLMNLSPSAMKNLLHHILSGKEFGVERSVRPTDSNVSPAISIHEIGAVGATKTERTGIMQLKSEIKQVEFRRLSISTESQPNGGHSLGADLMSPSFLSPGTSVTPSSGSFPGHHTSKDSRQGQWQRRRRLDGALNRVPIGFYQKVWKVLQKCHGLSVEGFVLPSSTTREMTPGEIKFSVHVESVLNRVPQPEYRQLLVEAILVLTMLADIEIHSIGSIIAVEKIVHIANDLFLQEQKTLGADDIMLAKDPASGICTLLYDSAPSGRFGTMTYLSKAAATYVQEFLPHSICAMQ

B1: phosphorylase kinase β subunit (natural protein, rabbit (endogenous in skeletal muscle), UniProt P12798 1-1093, looked up)
chain: MAGATGLMAEVSWKVLERRARTKRSGSVYEPLKSINLPRPDNETLWDKLDYYYKIVKSTLLLYQSPTTGLFPTKTCGGDQTAKIHDSLYCAAGAWALALAYRRIDDDKGRTHELEHSAIKCMRGILYCYMRQADKVQQFKQDPRPTTCLHSLFNVHTGDELLSYEEYGHLQINAVSLYLLYLVEMISSGLQIIYNTDEVSFIQNLVFCVERVYRVPDFGVWERGSKYNNGSTELHSSSVGLAKAALEAINGFNLFGNQGCSWSVIFVDLDAHNRNRQTLCSLLPRESRSHNTDAALLPCISYPAFALDDDVLYNQTLDKVIRKLKGKYGFKRFLRDGYRTSLEDPKRRYYKPAEIKLFDGIECEFPIFFLYMMIDGVFRGNPKQVKEYQDLLTPVLHQTTEGYPVVPKYYYVPADFVEYEKRNPGSQKRFPSNCGRDGKLFLWGQALYIIAKLLADELISPKDIDPVQRYVPLQNQRNVSMRYSNQGPLENDLVVHVALVAESQRLQVFLNTYGIQTQTPQQVEPIQIWPQQELVKAYFHLGINEKLGLSGRPDRPIGCLGTSKIYRILGKTVVCYPIIFDLSDFYMSQDVLLLIDDIKNALQFIKQYWKMHGRPLFLVLIREDNIRGSRFNPMLDMLAALKNGMIGGVKVHVDRLQTLISGAVVEQLDFLRISDTEELPEFKSFEELEPPKHSKVKRQSSTSNAPELEQQPEVSVTEWRNKPTHEILQKLNDCSCLASQTILLGILLKREGPNFITQEGTVSDHIERLYRRAGSKKLWLAVRYGAAFTQKFSSSIAPHITTFLVHGKQVTLGAFGHEEEVISNPLSPRVIKNIIYYKCNTHDEREAVIQQELVIHIGWIISNNPELFSGMLKIRIGWIIHAMEYELQIRSGDKPAKDLYQLSPSEVKQLLLDILQPQQNGRCWLNKRQIDGSLNRTPTGFYDRVWQILERTPNGIIVAGKHLPQQPTLSDMTMYEMNFSLLVEDMLGNIDQPKYRQIVVELLMVVSIVLERNPELEFQDKVDLDKLVKEAFHEFQKDESRLKEIEKQDDMTSFYNTPPLGKRGTCSYLTKVVMNLLLEGEVKPSNEDSCLVS
notes: phosphorylase kinase β subunit, regulatory; printed as 125 kDa, 1092 amino acids; source: purified from rabbit fast-twitch skeletal muscle as part of the PhK holoenzyme
B2: phosphorylase kinase γ subunit (catalytic subunit) (natural protein)
chain: not shown
notes: phosphorylase kinase γ subunit, catalytic; also called γ catalytic subunit; γ kinase subunit; source: purified from rabbit fast-twitch skeletal muscle as part of the PhK holoenzyme

Common to all, as to conditions: both partners purified
The target of experiment [1] is T1, phosphorylase kinase α subunit. Nature of the experiment: SEC; analytical Superdex 200 gel filtration of the PhK preparation several months after purification; fractions analysed by SDS-PAGE with Coomassie staining; subunits co-purified as the native complex.
Experiment [2] shares this target. Briefly: cryo-EM structure; PhK holoenzyme alone, subunits co-purified as the native complex from muscle; 100 mM NaCl, 0.3 mM CaCl2, 5 mM MgCl2, 50 mM HEPES pH 8.2; single-particle reconstruction at 9.9 Å; PhKγt (PDB 2PHK) fitted as a rigid body.
The target in experiment [3] is B1. Described as above.
Experiment [4] has as its target T2, phosphorylase kinase δ subunit (intrinsic calmodulin) (rabbit (endogenous in skeletal muscle), UniProt P62160 1-149).
T2 construct: phosphorylase kinase δ subunit, the intrinsic calmodulin; printed as 16.7 kDa, 148 amino acids; also called δ-calmodulin subunit; calmodulin-δ-subunit; source: purified from rabbit fast-twitch skeletal muscle as part of the PhK holoenzyme
The description is as above.

Take B1: in experiment [1], the binding result is on record as “binds”.
As for B2, the binding result in experiment [2], in experiment [3] and in experiment [4] was “binds” each time.
